The target of test [1] is T1, Human PSMA ECD-AFH (TSC033), recombinant dimeric PSMA ECD (human, UniProt Q04609 44-750).
T1 construct: SEC-purified dimer; also called HuPSMA-AFH; Avi-His-Human PSMA ECD
The experiment in a line: SPR (Biacore T200), human PSMA dimer ECD 10X His (TSC033), 1:1 fit.

The target in test [2] is T2, human Fcγ receptor IIA, R167 variant (human, UniProt P12318 36-218).
T2 construct: also called Type IIA R167
T2 sequence (looked up): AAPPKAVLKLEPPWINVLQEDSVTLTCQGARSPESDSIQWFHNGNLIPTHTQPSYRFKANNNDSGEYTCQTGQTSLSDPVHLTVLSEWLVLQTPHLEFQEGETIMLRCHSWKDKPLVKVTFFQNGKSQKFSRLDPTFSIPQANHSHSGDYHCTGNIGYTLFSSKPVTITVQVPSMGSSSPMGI
The experiment in a line: SPR (Biacore T200), construct amine-coupled, Fcγ receptor titrated 375-6000 nM, 1:1 fit. The procedure:
(§1) The Fc region incorporated into anti-PSMA bispecific constructs contained mutations intended to reduce or abolish binding to common human and cynomolgus Fc gamma receptors. SPR experiments were conducted at 25° C. in HBS-EP+ with 0.2% BSA buffer on a Biacore T200 system to evaluate the impact of these mutations on binding. For these experiments, three flow cells of a CM5 sensor chip were immobilized with anti-PSMA bispecifics by standard amine coupling to a response level of ˜2000 RU. A blank immobilization was performed on flow cell #1 for purposes of background signal subtraction. Both human and cynomolgus monkey Fcγ receptors (purchased from R&D Systems) were diluted in HBS-EP+ with 0.2% BSA to 4-6 μM and then flowed as analytes at 30 μL/min for 120 seconds followed by a 240 second dissociation step. No regeneration step was required. Blank-subtracted sensorgrams were visually inspected for binding to each of the Fcγ receptor proteins. […] Attenuated binding to Fcγ receptors IIA (both polymorphic variants) and IIB/C was observed. PSMA01107 and PSMA01108 share the same Fc amino acid sequence and therefore equivalent Fcγ receptor binding behavior was expected.
TSC266 (PSMA×CD3 bispecific antibody) and another protein containing a wild-type IgG1 Fc sequence were also analyzed for comparison. Sensorgrams obtained from kinetic SPR measurements were analyzed by the double subtraction method in the Biacore T200 evaluation software. Kinetic parameters were derived from a one-to-one binding fit model and reported below in Table 8. Both TSC266 and PSMA01107 show reduced binding compared to a wild type IgG1 Fc.
For orientation: In SPR one partner is held on a chip, and binding of the other changes the refractive index at the surface.

The target of test [3] is T3, human Fcγ receptor IIA, H167 variant (human, UniProt P12318 36-218).
T3 sequence (looked up): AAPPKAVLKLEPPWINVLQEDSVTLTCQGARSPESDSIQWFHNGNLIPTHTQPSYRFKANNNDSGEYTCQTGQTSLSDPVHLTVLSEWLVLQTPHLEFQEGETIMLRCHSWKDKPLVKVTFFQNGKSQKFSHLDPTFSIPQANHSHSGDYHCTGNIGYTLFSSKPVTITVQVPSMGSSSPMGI
Briefly: SPR (Biacore T200), construct amine-coupled, Fcγ receptor at 4-6 µM as analyte. The procedure:
as §1

The target in test [4] is T4, human Fcγ receptor IIB/C (human, UniProt P31994 46-217).
T4 sequence (looked up): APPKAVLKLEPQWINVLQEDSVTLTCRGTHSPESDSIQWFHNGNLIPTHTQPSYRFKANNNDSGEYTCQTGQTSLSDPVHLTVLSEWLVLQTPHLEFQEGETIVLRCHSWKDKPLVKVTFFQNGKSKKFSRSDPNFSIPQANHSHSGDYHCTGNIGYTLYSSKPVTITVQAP
Described as above. The procedure: as §1

Test [5] concerns the target T2, human Fcγ receptor IIA, R167 variant. The test is described as above. The procedure: as §1

T1 sequence (Q04609 other isoform, or with tags, fused parts or gaps): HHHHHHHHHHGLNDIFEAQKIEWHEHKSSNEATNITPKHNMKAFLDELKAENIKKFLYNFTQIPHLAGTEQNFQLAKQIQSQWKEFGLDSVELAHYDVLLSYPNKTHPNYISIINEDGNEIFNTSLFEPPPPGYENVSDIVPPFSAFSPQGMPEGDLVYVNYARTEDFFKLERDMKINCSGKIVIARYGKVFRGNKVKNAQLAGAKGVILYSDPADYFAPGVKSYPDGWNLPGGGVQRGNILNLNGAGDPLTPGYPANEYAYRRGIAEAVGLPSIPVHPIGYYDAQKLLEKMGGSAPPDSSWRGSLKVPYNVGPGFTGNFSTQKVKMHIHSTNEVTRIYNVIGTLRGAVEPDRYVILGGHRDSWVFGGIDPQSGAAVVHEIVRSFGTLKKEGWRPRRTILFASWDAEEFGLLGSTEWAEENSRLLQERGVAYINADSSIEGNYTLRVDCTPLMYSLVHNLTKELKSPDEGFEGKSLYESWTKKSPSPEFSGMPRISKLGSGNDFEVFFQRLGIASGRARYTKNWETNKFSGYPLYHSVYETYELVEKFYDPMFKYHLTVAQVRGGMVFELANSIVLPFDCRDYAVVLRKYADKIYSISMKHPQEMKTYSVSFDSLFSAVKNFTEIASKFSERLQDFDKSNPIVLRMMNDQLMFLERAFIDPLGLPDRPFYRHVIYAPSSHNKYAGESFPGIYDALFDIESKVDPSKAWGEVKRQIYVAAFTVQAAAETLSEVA

B1: PSMA01107 Anti-PSMA scFv x Fc x linker x Anti CD3 scFv; Anti PSMA scFv x Fc (bispecific antibody)
chain 1: QVQLVQSGAEVKKPGASVKVSCKASGYTFTDYYMHWVRQAPGQGLEWMGYFNPYNDYTRYAQKFQGRVTMTRDTSTSTVYMELSSLRSEDTAVYYCARSDGYYDAMDYWGQGTTVTVSSGGGGSGGGGSGGGGSGGGGSDIQMTQSPSSLSASVGDRVTITCRASKSISKYLAWYQQKPGKAPKLLIHSGSSLESGVPSRFSGSGSGTEFTLTISSLQPDDFATYYCQQHIEYPWTFGQGTKVEIKEPKSSDKTHTCPPCPAPPAAAPSVFLFPPKPKDTLMISRTPEVTCVVVDVSHEDPEVKFNWYVDGVEVHNAKTKPREEQYNSTYRVVSVLTVLHQDWLNGKEYKCAVSNKALPAPIEKTISKAKGQPREPQVYTLPPSRDELTKNQVSLWCLVKGFYPSDIAVEWESNGQPENNYKTTPPVLDSDGSFFLYSKLTVDKSRWQQGNVFSCSVMHEALHNHYTQKSLSLSPGGGGSPSQVQLVQSGAEVKKPGASVKVSCKASGYTFTRSTMHWVRQAPGQGLEWIGYINPSSAYTNYAQKFQGRVTLTADKSTSTAYMELSSLRSEDTAVYYCASPQVHYDYNGFPYWGQGTLVTVSSGGGGSGGGGSGGGGSGGGGSDIQMTQSPSSLSASVGDRVTITCRASSSVSYMNWYQQKPGKAPKRWIYDSSKLASGVPSRFSGSGSGTDFTLTISSLQPEDFATYYCQQWSRNPPTFGQGTKVEIKRS
chain 2: QVQLVQSGAEVKKPGASVKVSCKASGYTFTDYYMHWVRQAPGQGLEWMGYFNPYNDYTRYAQKFQGRVTMTRDTSTSTVYMELSSLRSEDTAVYYCARSDGYYDAMDYWGQGTTVTVSSGGGGSGGGGSGGGGSGGGGSDIQMTQSPSSLSASVGDRVTITCRASKSISKYLAWYQQKPGKAPKLLIHSGSSLESGVPSRFSGSGSGTEFTLTISSLQPDDFATYYCQQHIEYPWTFGQGTKVEIKEPKSSDKTHTCPPCPAPPAAAPSVFLFPPKPKDTLMISRTPEVTCVVVDVSHEDPEVKFNWYVDGVEVHNAKTKPREEQYNSTYRVVSVLTVLHQDWLNGKEYKCAVSNKALPAPIEKTISKAKGQPREPQVYTLPPSRDELTKNQVSLSCAVKGFYPSDIAVEWESNGQPENNYKTTPPVLDSDGSFFLVSKLTVDKSRWQQGNVFSCSVMHEALHNHYTQKSLSLSPG
notes: Heterodimer, bivalent for PSMA and monovalent for CD3 (VH-VL scFv at the C-terminus); also called PSMA1107
What is called Kd is the equilibrium constant for the complex coming apart. B1: the Kd is 0.0026 µM in test [1] and 5.3 µM in test [2].

B2: PSMA01108 Anti-PSMA scFv x Fc x linker x Anti CD3 scFv; Anti PSMA scFv x Fc (bispecific antibody)
chain 1: QVQLVQSGAEVKKPGASVKVSCKASGYTFTDYYMHWVRQAPGQGLEWMGYFNPYNDYTRYAQKFQGRVTMTRDTSTSTVYMELSSLRSEDTAVYYCARSDGYYDAMDYWGQGTTVTVSSGGGGSGGGGSGGGGSGGGGSDIQMTQSPSSLSASVGDRVTITCRASKSISKYLAWYQQKPGKAPKLLIHSGSSLESGVPSRFSGSGSGTEFTLTISSLQPDDFATYYCQQHIEYPWTFGQGTKVEIKEPKSSDKTHTCPPCPAPPAAAPSVFLFPPKPKDTLMISRTPEVTCVVVDVSHEDPEVKFNWYVDGVEVHNAKTKPREEQYNSTYRVVSVLTVLHQDWLNGKEYKCAVSNKALPAPIEKTISKAKGQPREPQVYTLPPSRDELTKNQVSLWCLVKGFYPSDIAVEWESNGQPENNYKTTPPVLDSDGSFFLYSKLTVDKSRWQQGNVFSCSVMHEALHNHYTQKSLSLSPGGGGSPSDIQMTQSPSSLSASVGDRVTITCRASSSVSYMNWYQQKPGKAPKRWIYDSSKLASGVPSRFSGSGSGTDFTLTISSLQPEDFATYYCQQWSRNPPTFGQGTKVEIKGGGGSGGGGSGGGGSGGGGSQVQLVQSGAEVKKPGASVKVSCKASGYTFTRSTMHWVRQAPGQGLEWIGYINPSSAYTNYAQKFQGRVTLTADKSTSTAYMELSSLRSEDTAVYYCASPQVHYDYNGFPYWGQGTLVTVSS
chain 2: QVQLVQSGAEVKKPGASVKVSCKASGYTFTDYYMHWVRQAPGQGLEWMGYFNPYNDYTRYAQKFQGRVTMTRDTSTSTVYMELSSLRSEDTAVYYCARSDGYYDAMDYWGQGTTVTVSSGGGGSGGGGSGGGGSGGGGSDIQMTQSPSSLSASVGDRVTITCRASKSISKYLAWYQQKPGKAPKLLIHSGSSLESGVPSRFSGSGSGTEFTLTISSLQPDDFATYYCQQHIEYPWTFGQGTKVEIKEPKSSDKTHTCPPCPAPPAAAPSVFLFPPKPKDTLMISRTPEVTCVVVDVSHEDPEVKFNWYVDGVEVHNAKTKPREEQYNSTYRVVSVLTVLHQDWLNGKEYKCAVSNKALPAPIEKTISKAKGQPREPQVYTLPPSRDELTKNQVSLSCAVKGFYPSDIAVEWESNGQPENNYKTTPPVLDSDGSFFLVSKLTVDKSRWQQGNVFSCSVMHEALHNHYTQKSLSLSPG
notes: also called PSMA1108; PSAM01108
As to B2, the binding result in test [3], in test [4] and in test [5] was “binds” in each case.

B3: TSC266 Anti PSMA scFv x Anti CD3 scFv ADAPTIR (bispecific antibody)
chain: DIQMTQSPSAMSASVGDRVTITCRASKSISKYLAWFQQKPGKVPKLRIHSGSTLQSGVPSRFSGSGSGTEFTLTISSLQPEDFATYYCQQHIEYPWTFGQGTKVEIKRGGGGSGGGGSGGGGSQVQLVQSGAEVKKPGASVKVSCKASGYTFTDYYMHWVRQAPGQGLEWMGYFNPYNDYTRYAQKFQGRVTMTRDTSISTAYMELSSLRSDDTAVYYCARSDGYYDAMDYWGQGTTVTVSSSEPKSSDKTHTCPPCPAPEAAGAPSVFLFPPKPKDTLMISRTPEVTCVVVDVSHEDPEVKFNWYVDGVEVHNAKTKPREEQYNSTYRVVSVLTVLHQDWLNGKAYACAVSNKALPAPIEKTISKAKGQPREPQVYTLPPSRDELTKNQVSLTCLVKGFYPSDIAVEWESNGQPENNYKTTPPVLDSDGSFFLYSKLTVDKSRWQQGNVFSCSVMHEALHNHYTQKSLSLSPGQRHNNSSLNTGTQMAGHSPNSQVQLVESGGGVVQPGRSLRLSCKASGYTFTRSTMHWVRQAPGQGLEWIGYINPSSAYTNYNQKFKDRFTISADKSKSTAFLQMDSLRPEDTGVYFCARPQVHYDYNGFPYWGQGTPVTVSSGGGGSGGGGSGGGGSAQDIQMTQSPSSLSASVGDRVTMTCSASSSVSYMNWYQQKPGKAPKRWIYDSSKLASGVPARFSGSGSGTDYTLTISSLQPEDFATYYCQQWSRNPPTFGGGTKLQITSSS
notes: The anti-PSMA domain is that of PSMA01012 and the anti-CD3 domain is DRA222; also called unoptimized parent construct; TSC266 control (PSMA × CD3 bispecific protein)
In turn, B3 yielded a Kd in test [2] of 1.5 µM.

(Values after patent US20240301086A1 (APTEVO RESEARCH AND DEVELOPMENT, published 2024).)
